The source of these data is publication PMC7954794, “Protein context shapes the specificity of SH3 domain-mediated interactions in vivo” (Nature Communications, 2021).

The subject of the assay is 575 putative partners (preys) of 22 WT SH3-containing proteins. Put plainly: DHFR-PCA on solid medium, WT and SH3-deleted baits (Fig. 1B). To be noted: number of PPIs; SH3 domain in its own protein; DHFR-PCA; Fig2D,S2F. In kind it is cell-based, Saccharomyces cerevisiae. The procedure, abridged: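 In S. cerevisiae, 22 SH3-containing baits fused genomically to DHFR F[1,2], either WT or with each SH3 replaced via CRISPR by a poly-Gly/Ser linker, screened against 575 DHFR F[3] preys plus 40 negative controls in 1536 arrays, preys duplicated at randomized positions.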

B1: MYO3 (protein, UniProt P36006 1-1272, looked up)
Myosin-3: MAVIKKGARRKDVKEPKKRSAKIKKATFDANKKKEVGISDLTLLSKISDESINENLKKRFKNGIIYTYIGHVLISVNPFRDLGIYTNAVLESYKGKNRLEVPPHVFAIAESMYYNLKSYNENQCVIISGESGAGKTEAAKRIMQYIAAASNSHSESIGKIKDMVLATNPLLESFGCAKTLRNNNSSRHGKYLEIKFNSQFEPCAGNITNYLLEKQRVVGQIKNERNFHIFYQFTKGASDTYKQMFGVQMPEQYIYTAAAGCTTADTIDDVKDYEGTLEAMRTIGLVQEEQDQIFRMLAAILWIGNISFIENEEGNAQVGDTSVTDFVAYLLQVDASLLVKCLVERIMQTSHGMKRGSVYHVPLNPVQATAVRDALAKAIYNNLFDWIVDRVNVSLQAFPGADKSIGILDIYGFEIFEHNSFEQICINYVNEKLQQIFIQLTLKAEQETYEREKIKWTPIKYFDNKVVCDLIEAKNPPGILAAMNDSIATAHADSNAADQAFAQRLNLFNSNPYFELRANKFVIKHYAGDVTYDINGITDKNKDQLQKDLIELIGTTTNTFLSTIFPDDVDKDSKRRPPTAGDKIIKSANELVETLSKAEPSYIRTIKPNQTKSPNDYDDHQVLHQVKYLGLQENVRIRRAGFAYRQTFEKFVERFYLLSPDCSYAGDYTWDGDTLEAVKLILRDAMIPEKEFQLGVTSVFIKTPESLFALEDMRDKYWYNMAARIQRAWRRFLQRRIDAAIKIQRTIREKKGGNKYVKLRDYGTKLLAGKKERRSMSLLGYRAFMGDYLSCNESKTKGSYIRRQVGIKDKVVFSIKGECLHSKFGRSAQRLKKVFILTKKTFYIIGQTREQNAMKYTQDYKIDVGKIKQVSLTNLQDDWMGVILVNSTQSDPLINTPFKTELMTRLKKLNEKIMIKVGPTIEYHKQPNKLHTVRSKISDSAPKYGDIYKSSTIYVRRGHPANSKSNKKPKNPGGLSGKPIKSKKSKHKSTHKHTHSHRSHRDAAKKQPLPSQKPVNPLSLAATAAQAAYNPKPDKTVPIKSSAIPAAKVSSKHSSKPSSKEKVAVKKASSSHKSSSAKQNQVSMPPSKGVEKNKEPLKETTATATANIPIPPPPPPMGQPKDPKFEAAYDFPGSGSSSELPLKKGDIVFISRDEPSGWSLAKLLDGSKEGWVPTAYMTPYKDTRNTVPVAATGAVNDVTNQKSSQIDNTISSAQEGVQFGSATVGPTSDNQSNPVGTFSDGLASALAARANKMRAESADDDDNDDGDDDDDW
For the molecule B1, the “SH3-dependent PPIs” value turned out to be 17.

B2: MYO5 (protein, UniProt Q04439 1-1219, looked up)
Myosin-5: MAILKRGARKKVHQEPAKRSANIKKATFDSSKKKEVGVSDLTLLSKISDEAINENLKKRFLNATIYTYIGHVLISVNPFRDLGIYTDAVMNEYKGKNRLEVPPHVFAIAESMYYNMKSYNENQCVIISGESGAGKTEAAKRIMQYIAAASSTHTESIGKIKDMVLATNPLLESFGCAKTLRNNNSSRHGKYLEIKFNNQFEPCAGNITNYLLEKQRVVSQIKNERNFHIFYQFTKGASDAYRQTFGVQKPEQYVYTAAAGCISAETIDDLQDYQETLKAMRVIGLGQEEQDQIFRMLAAILWIGNVSFIENEEGNAQVRDTSVTDFVAYLLQIDSQLLIKSLVERIMETNHGMKRGSVYHVPLNIVQADAVRDALAKAIYNNLFDWIVSRVNKSLQAFPGAEKSIGILDIYGFEIFEHNSFEQICINYVNEKLQQIFIQLTLKSEQETYEREKIQWTPIKYFDNKVVCDLIEARRPPGIFAAMNDSVATAHADSNAADQAFAQRLNLFTTNPHFDLRSNKFVIKHYAGDVTYDIDGITDKNKDQLQKDLVELIGTTTNTFLATIFPDTVDRESKRRPPTAGDKIIKSANDLVETLSKAQPSYIRTIKPNETKSPNDYDDRQVLHQIKYLGLQENVRIRRAGFAYRQVFEKFVERFYLLSPHCSYAGDYTWQGDTLDAVKYILQDSSIPQQEYQLGVTSVFIKTPETLFALEHMRDRYWHNMAARIQRAWRRFLQRRIDAATKIQRTIRERKEGNKYEKLRDYGTKVLGGRKERRSMSLLGYRAFMGDYLSCNESKSKGAYIKRQVSIKEKVIFSIHGEALHTKFGRSAQRLKKTFLLTPTTLYIVGQTLVQNAMTYTQDYKIDVRNIQAVSLTNLQDDWVAIKLASSGQPDPLINTYFKTELITHLKRLNDKIQIKIGSAIEYQKKPGKLHSVKCQINESAPKYGDIYKSSTISVRRGNPPNSQVHKKPRKKSSISSGYHASSSQATRRPVSIAAAQHVPTAPASRHSKKPAPPPPGMQNKAATRRSVPNPASTLTASQSNARPSPPTAATRATPAATPAAAAMGSGRQANIPPPPPPPPPSSKPKEPMFEAAYDFPGSGSPSELPLKKGDVIYITREEPSGWSLGKLLDGSKEGWVPTAYMKPHSGNNNIPTPPQNRDVPKPVLNSVQHDNTSANVIPAAAQASLGDGLANALAARANKMRLESDDEEANEDEEEDDW
In the case of B2, the “SH3-dependent PPIs” value was 19.
